Measured values from the DeepSol protein solubility set.

Test: soluble on expression in E. coli; label from the status in PepcDB or PDB records

Sequence	soluble on expression in E. coli
MDDSDDEYSRSHGETLTFVDPEDDGVSIGNTQDSQFAYEQFSVPTQSSQATDLLPGGTDGTTNDLPFHDVEDDESDSEKSLTEEQQQQKLPEHACRYCGISDPLCVAKCTVCRKWFCNSNDGTSGGHIVHHMVRSQHKEAYTHKDSPCGDTQLECYRCGSKNVFNLGFIPGKKDQVVVIICRTPCASIAFQNDDNWSPEDWKSVIAEKQLLSWIVNVPSEEQVARARKITATQAVRMEELWRDHPEATVDDLNKPGLDREPDHVQLRYVDAHHYSKVFRPLVAIEAEYDRRVKESASQAVGTVRWEQGLRQSVLAFFHLPQFADGVMKLAKGDELRLKHSQTVDGSEWTKIGSVFKIPDNHGDEVGIEIRGAVDKSVMESRIMFTVDVVWNATTFERQYKALAALLNDSKAISPYLYQKLLGHPAEEMMLKFDLPRRLSVAGLPELNSSQMQAVKQVLTRPLSLIQGPPGTGKTVVSATIVYHLVQKTEGNVLVCSPSNIAVDHLAEKIHKTGLKVVRLCARSREHSETTVPYLTLQHQLKVMGGAELQKLIQLKDEAGELEFKDDLRYMQLKRVKEHELLAAADVICCTCSSAADARLSKIRTRTVLIDESTQATEPEILVSIMRGVRQLVLVGDHCQLGPVVICKKAAIAGLSQSLFERLVLLGIRPFRLQVQYRMHPVLSEFPSNVFYDGSLQNGVTENDRHMTGVDWHWPKPNKPAFFWHCSGSEELSASGTSFLNRTEAANVEKLVSKLIKAGVQPHQIGVITPYEGQRSFIVNYMHTQGTLNSKLYENVEIASVDAFQGREKDYIIVTCVRSNDILGIGFLSDPRRLNVAITRAKYGLVLVGNAKVLARHDLWHELINHYKSKEMLYEGPINALKPLNLALPKATIRTKNNIAGNANRFGIKRMQYTFNEYKSNDPSQPRLPPTYSNSQNLLSMSKLAQTFNKNVPIPAHMMDPNVYAAARNQKDRRRGDQRRPPPQAEAAMDLSQGMMSQQSQQYPPQGASSQSQYLLDGASSLSGWSQSQTTTTTTRHHHHRQNRNSQQQMSQDMDDIQQKMDDLLFSQDC	not soluble
MVEVKNLVAITGPKMPYELARLLKISHARATRLAAAANAQNPTPSRARTSDAQAQQPAAASPKPPAEPVAAEPKKKRAKKATPVEAGLPPLTGKITGGHACAFDVVGESYYQPALRRLRNGRHMATDNDFVADIVAEPDNPHDPNACAVYIEGFKVGYLPRDAAADFQQQVADMGVTGTWRLQTKAKLSGGWGDRPMVGVLLSLPKSLEHHHHHH	soluble
ISLKYTAARLHEKGVLLEIEDLQVNQFKNVIFEISPTEEVGDFEVKAKFMGVQMETFMLHYQDLLQLQYEGVAVMKLFDRAKVNVNLLIFLLNKKFYGK	soluble
MVWMVELKEPFATLWRGKDPFEEVKTLQGEVFRELETRRTLRFEMAGKSYFLKWHRGTTLKEIIKNLLSLRMPVLGADREWNAIHRLRDVGVDTMYGVAFGEKGMNPLTRTSFIITEDLTPTISLEDYCADWATNPPDVRVKRMLIKRVATMVRDMHAAGINHRDCYICHFLLHLPFSGKEEELKISVIDLHRAQLRTRVPGRWRDKDLIGLYFSSMNIGLTQRDIWRFMKVYFAAPLKDILKQEQGLLSQAEAKATKIRERTIRKSL	not soluble
MGSDKIHHHHHHMRLPLNQRVAILLHEGTTGTIGKTGLALLRYSEAPIVAVIDRNCAGQSLREITGIYRYVPIVKSVEAALEYKPQVLVIGIAPKGGGIPDDYWIELKTALQAGMSLVNGLHTPLANIPDLNALLQPGQLIWDVRKEPANLDVASGAARTLPCRRVLTVGTDMAIGKMSTSLELHWAAKLRGWRSKFLATGQTGVMLEGDGVALDAVRVDFAAGAVEQMVMRYGKNYDILHIEGQGSLLHPGSTATLPLIRGSQPTQLVLVHRAGQTHNGNNPHVPIPPLPEVIRLYETVASGGGAFGTVPVVGIALNTAHLDEYAAKEAIAHTIAETGLPCTDVVRFGADVLLDAVMQN	not soluble
MGSDKIHHHHHHMNILDGIKSLALKLGSKQDQTYYARGLSLTDDLMQIEALWRDNWIANKVCIKRSEDMVRNWRDIFSNDLKSEQLDEFTKLERRLKLRETLTKALQWSSLYGAVGLLVVTDTINITSPLQPTERLKRLIILPKWKISPTGQRDDDVFSPNFGRYSEYTITGGTQSVSVHHSRLLIINANDAPLSDNDIWGVSDLEKIIDVLKRFDSASANVGDLIFESKIDIFKIAGLSDKISAGLENDVAHVISAVQSIKSATNSLLLDAENEYDRKELSFGGLKDLLTEFRNAVAGAADMPVTILFGQSVSGLASGDEDIQNYHESIHRLQETRLRPVLEVLDTLLCNELFGGQPDDWWFEFLPLTVVKQEQQVNMLNTFATAANTLIQNGVVNEYQVANELRESGLFANISADDIEEMKNANELARNFEEPEGESTQVQASEDE	not soluble
MGSDKIHHHHHHMKTYMISLHGAYENENFGDELLIAIQAKWINDEGYDVCLPFASKVYREQIPSLDKEGSRGLEESEKLIYTGGGYFGEPNHKTFKWGINFFRKKHHIPAKIFKKNNKKYLICGVGAGPITNPITRYTVVKICNFAEKVVVRDTTSYDYLIKYGVIPEKIQVGADVVLSLTIHDLPKGSIEKAKKTLNKDNKNFYLGIHIGVSPDDENYKTNVKAAMESLANVIKRNSVVPVLIADKRNATSTQEKAIEYMSSLLDEEPIVYRHSNIWETCAFLSSLDGVVTTKLHVGITAYTLGTRTFGIAAHQKTRRFYNQIKKENYFYELKEVDNGIESSLELFIKDRYWDEETLQAKKELNERALLCKREMLQFLES	not soluble
SSNAKADQASSDAQTANAKADQASNDANAARSDAQAAKDDAARANQRADNAA	soluble
MGSDKIHHHHHHMGNYLVLQSDFGLSDGAVSAMYGVAYTVSDDIRVENLTHDIPPYDIWVASYRLYQTVKYWPKGTVFVSVVDPGVGSDRRSIACLTYSGHYIITPDNGSLSHIKHYEGIKKVIEIDEVKSRLPHSEESHTFHGRDVYAYNGARLAANKIAFERLGQAINVDSIEALEIREATKNEDSVTGSIDILDIRFGSLWTNIPLAFLKSLEIVHGNNLVVTIYHQDKKVYQNIIKFARSFADVNVGEPLVYVNSLVNIGVAVNQDSFSDLYHIGTGNDWTIHLSKAPSI	not soluble
MILKLKYYREAMNLTQEELARHAKVSVAMVQSMENGRRKGSTDTILKLSDALNVTVDDLLRGNNMTISHKKETSK	not soluble
GPSPVGQQYHVEKFSGLRIRKPRVSSSEMERKMNGRKLIRLAQLQNKIATEKLEEEDWVTFGVIVKKITPQSSNNGKTFSIWRLNDLKDLDKYISLFLFGDVHKEHWKTDQGTVIGLLNANPMKPKEGTDEVCLSVDNPQKVLLMGDAVDLGTCKARKKNGDPCTQMVNLNDCEYCQYHVQAQYKKVSSKRADLQSSYSG	soluble
MSCVHYKFSSKLNYDTVTFDGLHISLCDLKKQIMGREKLKAADSDLQITNAQTKEEYTDDNALIPKNSSVIVRRIPIGGVKSTSKTYVISRTEPVMGTTKAVCKNTITLFLHNCFYLYNVSVT	not soluble
MIIAGVDIGNSTTEVALAKVNGDEIRFLASGISNTTGIKGTPQNVEGVRHALEDAVRKANLTIKDIDLLRINEATPVISDIAMEAITETIITESTMIGHNPTTPGGVGLGIGITIPIFELEKCKHGEEVIVVIPKNVDYEDAAKIINNAFSKGVEVKGAIAQKDDGVLIATRLQRRIPIVDEVKQIEKVPIGMLACVEVAEPGYTIKTLSNPYGIASVFNLTAEETKNIVPVARALIGNRSAVVIRTPKGEVQERKIPAGTLIIKGNNRTFTVDIEEGAEAIMSAVESTWPLVDAEGTPGTNVGGLIARIKETMADVTGQDSSNIQIQDVLAVDTLVRQKVKGGIAEEFSSENAVALAAMVKSSKLPMEKVAQKIEQEIGIAVEIAGIEANMAIIGALTTPGTELPLAILDLGGGSTDAALMTKNGEVKSVHMAGAGEMVNMLIKTELGIEDKYLVEDIKKYPVCRVESLFSIRLEDGTVRFFKEPLDPRTFARVCLLREDGLLPLPPELNMEKVINVRRNAKRKVFVTNALRALSKVAPAGNIRLIDFVVMVGGSALDFEIPEMISDTLAGYGIVAGRGNIRNVEGPRNAVATGLVLSRCKRK	not soluble
MSIYTLGIDVGSTASKCIILKDGKEIVAKSLVAVGTGTSGPARSISEVLENAHMKKEDMAFTLATGYGRNSLEGIADKQMSELSCHAMGASFIWPNVHTVIDIGGQDVKVIHVENGTMTNFQMNDKCAAGTGRFLDVMANILEVKVSDLAELGAKSTKRVAISSTCTVFAESEVISQLSKGTDKIDIIAGIHRSVASRVIGLANRVGIVKDVVMTGGVAQNYGVRGALEEGLGVEIKTSPLAQYNGALGAALYAYKKAAKSAWSHPQFEK	soluble
MSSNYATPLDDEVFPLSFANYQFTEHVSLGEHYSLNTSEDAKYNNLNGPFVVPRDTGKFDLNTSSASDETVFSLDNPQENNYKHQAMNNVQDCRMAVAAKTTQSCDKLTDLYANAAQQNYRLWLSSF	not soluble
MGSDKIHHHHHHMSRNRPAPSGDQFDLFLPYVADMPMRDQREMMERPFFSLAKSKRVKPIDYTSPDGKLWVHVSGNPDYGMATIWDADILIYCASVLADMARRGVNDVPRKLHLMPYDLLRAIGRPTTGRAYELLGQALDRLVATTIKTNIRAENRREATFSWLDGWTQLVDEKTERSRGMTIELSNWFWEGVMMKGGVLSIDRAYFDITGGRERWLYKVARKHAGGAGEEGFAISMPVLFEKSGAEGEYRRFKFEILKLAEKNALPGYGLSVETARGGEPMLRMRRVDGKDGADRALPEAGRQGAEARTVASTAPDVSPGKHSSGASETVDVRALIRKTVAGVSDAATRGFMTDETIRHLRETCPGWDLHALHAEFESWVNGDSARLPANWQKAFIGWVKRHHEKNGHALRR	not soluble
MGSDKIHHHHHHMTVELLNEPLSRYPAFDTADPEELRQALSSVYGAKLVEGPIAADFHARSNFVQLDDIALAFGVGTGSIAVEFPEGECARLQIALSGQFTTRSGGTSTAINARQAGIISPGRNARTEYGQNYSFTLLRVSTSALERKLTTLLGCKPKASLEFEPAANNEAPQVVNLRRMLCFLANQLNCSPLPPVVLAELQEAITLLFLSAFRHNYSRQLERESHGIAPKHVRQVEEYIEANWMRPITIEKLTALTGISSRGIFKAFQRSRGYSPMAFAKRVRLQHAHNLLSDGATPTTVTAAALSCGFSNLGHFARDYRDMFGEKPSETLQRARP	not soluble
MMAQEISNLVKKYNVTWQQTMLRIYDPKETVEFYEKNFGMINIHTYHFNEYNFSLYFLITPPYDEEERKKLPEPNTKESEKYLWNLNTVCLELTYNHNSQEKLSNGNNENDRGFGHIAFNCNDVIEQCDNLFKKNVKFHKLPHETKMKTIGFALDPNNYWIEIVKRSNQVKWKNYKNITNFSQTMIRVKNPEKSLYFYIHILGMKLIHVKHCSDFSLYFLKSNYACAENNKEMIEDQSNKNTNEIYDFNSLKNSYQTDEDYENFKQSWEPVLELTHNHGTEDDDNFSYHNGNTEPRGFGHIGFLVNDLENYCKELETLNVTFKKKVTEGLMKNIAFIYDPDNYVIELIQRDTSFIAK	not soluble
MHTSELLKHIYDINLSYLLLAQRLIVQDKASAMFRLGINEEMATTLAALTLPQMVKLAETNQLVCHFRFDSHQTITQLTQDSRVDDLQQIHTGIMLSTRLLNDVNQPEEALRKKRA	soluble
MSLKREIILYKSISTDLLEQLKNRFIVHQHQLKSEMDDSFFSDLQRVEGIIGSKLRVDGHLLDQAPHLKIVTNISVGYDNLEIEELTKRGIMATNTPDVLTDTVADTVFGLLLATSRRICELDQYVKLGRWDENIGEHLFGVDVHHKTLGIIGMGRIGLAVAERAHYGFKMKIVYHNRSTHSYAEKNINATYASLEELLTVSDFVLVMAPLVPETVKLIGEKEFDLMKETAIFLNGSRGELVDELALIHALQSKKIWGAGLDVYEQEPISKESLLLQLKNVVTLPHIGSATRETRYKMAKLAVDNLMKGFTGEVPPSLINPDVLTDEGHHHHHH	not soluble
